Data: publication PMC11205783, “HigA2 (Rv2021c) Is a Transcriptional Regulator with Multiple Regulatory Targets in Mycobacterium tuberculosis”

target: T1, HigA2 (Mycobacterium tuberculosis H37Rv, UniProt O53467 1-101); experiment: EMSA; essentially complete binding; 1 uM DNA; EMSA: 20 mM Tris-HCl, 150 mM NaCl, pH 8.0, 37 °C, 5 min, HigA2 1 uM (titrated in Fig 4); agarose or native PAGE. Pull-down: streptavidin beads, 4 °C, PBS washes; conditions: protein: recombinant; tags: C-terminal 6xHis; chain copies: 2; blunt
T1 sequence: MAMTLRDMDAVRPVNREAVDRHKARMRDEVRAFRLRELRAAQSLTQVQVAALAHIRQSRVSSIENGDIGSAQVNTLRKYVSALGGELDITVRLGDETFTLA

Molecule	binding signal [µM]
Rv0010c-40bp (dsDNA) DNA 1: CAGTGGGGATGAATCACATGCGTGTGATTGAGTGACCAAA DNA 2: TTTGGTCACTCAATCACACGCATGTGATTCATCCCCACTG	~8
Rv0258c-40bp (dsDNA) DNA 1: CATGGTGTCAGGATCACCCCGCTGTGATCAAAGATCAAGC DNA 2: GCTTGATCTTTGATCACAGCGGGGTGATCCTGACACCATG	~5
Rv2044c-40bp (dsDNA) DNA 1: TGTCGCTCACTACATCACCGGCGTGATCTATCCCGCCGGT DNA 2: ACCGGCGGGATAGATCACGCCGGTGATGTAGTGAGCGACA	~5
Rv3396c-40bp (dsDNA) DNA 1: TGTGGGGTGTGCATCACCTCCGGGTGATACTGCACCCCGG DNA 2: CCGGGGTGCAGTATCACCCGGAGGTGATGCACACCCCACA	~8
Rv0086-40bp (dsDNA) DNA 1: CGCCATCGCCGATATCACCGGCGTGATGCGACGGTCGCGG DNA 2: CCGCGACCGTCGCATCACGCCGGTGATATCGGCGATGGCG	~20
Rv2434c-40bp (dsDNA) DNA 1: GGTTCCCATGGGTATCACCTTCGTGATCGCCGGCAGCGTG DNA 2: CACGCTGCCGGCGATCACGAAGGTGATACCCATGGGAACC	~20
Rv1733c-40bp (dsDNA) DNA 1: GTGTTGCTGTCGATCACCCCCTCGTGATCGATCACGGTCG DNA 2: CGACCGTGATCGATCACGAGGGGGTGATCGACAGCAACAC	~8

target: T2, HigA2 (Mycobacterium tuberculosis H37Rv) (UniProt O53467); experiment: EMSA; conditions: EMSA: 20 mM Tris-HCl, 150 mM NaCl, pH 8.0, 37 °C, 5 min, HigA2 1 uM (titrated in Fig 4); agarose or native PAGE. Pull-down: streptavidin beads, 4 °C, PBS …
T2 sequence: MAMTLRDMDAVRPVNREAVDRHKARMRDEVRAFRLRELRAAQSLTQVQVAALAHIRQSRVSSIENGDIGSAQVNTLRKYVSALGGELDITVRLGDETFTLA

Molecule	binding signal [µM]	binding
higB2 40 bp	5	
GGCACAGGCTACTGTTTCAACGGCCCGGGTGCGCAGAGTCCGTCCTCGCCTGCCGGCATTTCCTCGACGGTAGCCCCGTCGCCCGCTGCTCTTACCCGGAGGAATATCACCCTTGTGTGATATCGCGTATCGCGCTACTCTGCGACTCTGTGGGGTGGACGGCGGATGTGGAGCGCATCTCCGCCTGGCTCAACGGCTTGGACCGAGAGACCTACGAATTGGTGTTCGCAGCTATCG (double strand) [seq4]		binds
CGCTGCTCTTACCCGGAGGAATATCACCCTTGTGTGATATCGCGTATCGCGCTACTCTG (double strand) [seq6]		binds
